The target of the assay is PR55α regulatory subunit of PP2A (human (endogenous in CD18/HPAF)) (UniProt P63151). Description: co-IP; PR55α immunoprecipitated with anti-PR55α (2G9) from CD18/HPAF cells stably transduced with empty vector, Flag-YAP or Flag-YAP(5SA); immunoblotted with anti-PR55α (100C1) and anti-Flag (M2).
Chain of UniProt P63151 (P63151 whole entry): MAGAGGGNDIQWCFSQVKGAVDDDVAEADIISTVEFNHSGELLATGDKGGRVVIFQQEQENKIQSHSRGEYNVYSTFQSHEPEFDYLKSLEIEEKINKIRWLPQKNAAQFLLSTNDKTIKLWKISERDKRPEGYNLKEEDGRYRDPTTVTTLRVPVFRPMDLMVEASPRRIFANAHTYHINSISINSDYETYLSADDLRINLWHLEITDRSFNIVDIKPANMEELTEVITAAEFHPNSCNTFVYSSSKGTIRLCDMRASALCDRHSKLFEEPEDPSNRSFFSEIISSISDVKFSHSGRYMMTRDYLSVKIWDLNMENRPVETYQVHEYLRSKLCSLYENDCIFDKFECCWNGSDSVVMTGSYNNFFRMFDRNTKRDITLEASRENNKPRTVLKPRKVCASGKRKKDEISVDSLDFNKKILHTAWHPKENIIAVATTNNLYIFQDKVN

Turning to Flag-YAP(WT) (natural protein), the fold of the level in the anti-PR55α immunoprecipitates against Flag-YAP(5SA) turned out to be 28 fold.

These data come from paper PMC6817822.
